Experimental data: paper PMC12017799, “Molecular mechanism of SmMYB53 activates the expression of SmCYP71D375, thereby modulating tanshinone accumulation in Salvia miltiorrhiza”

Biological target: SmMYB53 (Salvia miltiorrhiza, UniProt A0A059PSP0 1-372)
Experiment: EMSA; SmMYB53 alone; LightShift Chemiluminescent EMSA kit (Beyotime) binding buffer, >30 min at 4 C; unlabeled competitor 10-fold; salt and pH not stated
Settings: protein: recombinant; tags: His (pCold); label: biotin; blunt

Sequence of SmMYB53 (A0A059PSP0 entry or part of it): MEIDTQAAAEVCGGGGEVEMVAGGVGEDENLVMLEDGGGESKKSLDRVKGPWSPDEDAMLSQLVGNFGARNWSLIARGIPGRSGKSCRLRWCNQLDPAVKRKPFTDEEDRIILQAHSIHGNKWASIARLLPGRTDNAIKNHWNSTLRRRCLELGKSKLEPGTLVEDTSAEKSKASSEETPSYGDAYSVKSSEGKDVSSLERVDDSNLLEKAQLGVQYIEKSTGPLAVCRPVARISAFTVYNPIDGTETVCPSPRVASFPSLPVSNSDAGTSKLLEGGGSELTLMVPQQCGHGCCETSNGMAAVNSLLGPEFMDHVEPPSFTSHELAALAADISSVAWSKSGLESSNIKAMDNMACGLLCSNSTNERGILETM

B1: MBS2 probe (SmCYP71D375 promoter) (dsDNA)
DNA 1: AGATCCGTTGGAGAAGATCCGTTGGAGAAGATCCGTTGGAGA
DNA 2: TCTCCAACGGATCTTCTCCAACGGATCTTCTCCAACGGATCT
binding result: binds

B2: MBS1 probe (SmCYP71D375 promoter) (dsDNA)
DNA 1: GCTTCAGTTGAGCTGCTTCAGTTGAGCTGCTTCAGTTGAGCT
DNA 2: AGCTCAACTGAAGCAGCTCAACTGAAGCAGCTCAACTGAAGC
binding result: binds
